Results as given in article PMC11061236, “Structure-function analysis of plant G-protein regulatory mechanisms identifies key Gα-RGS protein interactions” (The Journal of Biological Chemistry, 2024).

Tests used:
[1] = molecular target: RGS domain of Selaginella moellendorffii RGS (SmRGS), wild-type (Selaginella moellendorffii); assay: ITC; SmGPA (syringe) injected into SmRGS (cell), 10:1; 20 °C; 50 mM Tris·HCl pH 8.0, 100 mM NaCl, 5 mM MgCl2, 100 mM GDP, 30 mM AlCl3, 20 mM NaF, 2 mM TCEP, 5% glycerol (GDP·Mg2+·AlF4- form that mimics the GTP-bound form); one-site model
[2] = molecular target: SmRGS E355A (Selaginella moellendorffii); assay: as above
[3] = molecular target: SmRGS N357A (Selaginella moellendorffii); assay: as above
[4] = molecular target: SmRGS E313A (Selaginella moellendorffii); assay: as above
OsRGA1 = molecular target: T1, OsRGA1 (Oryza sativa, UniProt A2Y3B5); assay: X-ray crystal structure, […] Å; assay type: binding; conditions: Mg2+; co-crystallised with 5 mM GDP, 4 °C; nucleotide site between Ras-like and helical domains
T1 construct: gene GPA1; full-length cDNA in pET-28a, N-terminal His6, E. coli BL21(DE3); tag cut with thrombin for crystals; four monomers in asymmetric unit, modelled within residues 39-375
T1 sequence (A2Y3B5 whole entry, the tested form may be a part): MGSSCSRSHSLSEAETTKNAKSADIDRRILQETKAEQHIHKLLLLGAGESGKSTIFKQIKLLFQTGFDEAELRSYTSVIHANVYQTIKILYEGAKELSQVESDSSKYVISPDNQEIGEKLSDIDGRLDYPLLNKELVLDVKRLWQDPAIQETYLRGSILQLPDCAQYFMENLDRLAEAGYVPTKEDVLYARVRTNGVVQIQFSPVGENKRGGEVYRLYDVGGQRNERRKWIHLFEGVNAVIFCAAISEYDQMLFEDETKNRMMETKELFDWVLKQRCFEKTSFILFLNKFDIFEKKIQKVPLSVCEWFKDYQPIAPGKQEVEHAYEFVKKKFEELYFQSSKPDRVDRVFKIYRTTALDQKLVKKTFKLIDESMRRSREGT

Kd [1] [nM]	dH [1] [kcal/mol]	Compound	also measured
55	-4.81	SmGPA N216A (natural protein)	
23	-3.07	Selaginella moellendorffii Gα (SmGPA), wild-type (natural protein)	Kd [2]: 16 nM; dH [2]: -7.04 kcal/mol; Kd [3]: 6770 nM; dH [3]: -4.36 kcal/mol; Kd [4]: 1050 nM; dH [4]: -3.74 kcal/mol
130	-2.89	SmGPA V189A (natural protein)	
59	-7.45	SmGPA Y126A (natural protein)	
1960	-6.29	SmGPA R219A (natural protein)	
16900	3.1	SmGPA F245A (natural protein)	
		Nc1nc2c(ncn2[C@@H]2O[C@H](COP(=O)(O)OP(=O)(O)O)[C@@H](O)[C@H]2O)c(=O)[nH]1 [GDP]	X-ray crystal structure, 2.99 Å (OsRGA1): interactions with the guanine ring and ribose of GDP are comparable to GTPγS bound in SmGPA
86	-6.53	SmGPA D125A (natural protein)	
270	-5.3	SmGPA Q214A (natural protein)	
18400	-2.73	SmGPA E246A (natural protein)	
